Measured values: patent publication US10919943B2, “Mutant proteins enabling agrochemical control of plant gene expression” (The Regents of the University of California, priority 2016, dated 2021)

System: HAB1
Test: Yeast two hybrid of pBD-PYR1 site saturation mutants with pACT-HAB1 on 10 μM ABA, β-galactosidase staining
Type: cell-based, Arabidopsis
Parameters: key: x: Mutations in PYR1 that disrupt ABA-induced binding to PYR1 to HAB1
Settings: S. cerevisiae Y190, 10 μM ABA; dead = lack of visible staining in comparison to wild type control
Excerpt: To systematically identify mutations in PYR1 that disrupt its binding to HAB1, we utilized a collection of saturating mutations that contain all possible single amino acid substitutions in 24 conserved interface residues involved in binding HAB1, which was previously constructed for the purpose of engineering constitutively active ABA receptor variants (Mosquna et al., 2011). The interface residues previously mutagenized in this collection are the following: H60, F61, I62, K63, I84, S85, G86, L87, P88, A89, H115, R116, L117, P148, G150, N151, D154, D155, T156, M158, F159, T162, L166, K170. This set was made by mutagenizing a pBD-PYR1 template that encodes a GAL4-DNA binding domain fusion to PYR1, which can be used to assess receptor-HAB1 binding in S. cerevisiae strains co-transformed with pACT-HAB1, which expresses a GAL4 activation domain fusion to HAB1. Mutant pBD-PYR1 clones from the collection are maintained in S. cerevisiae strain Y190 co-transformed with pACT-HAB1. The test strains were spotted onto agar plates containing synthetic dextrose dropout media lacking leucine and tryptophan [SD (-Leu, -Trp)] medium supplemented with 10 μM ABA. After incubating the test plates at 30° C. for two days, colonies were chloroform lysed and stained to reveal […] expression levels and “dead” mutants were defined by lack of visible staining in comparison to a wild type control. This effort defined 237 mutations that disrupt ABA-induced binding of PYR1 to HAB1 (Table 1). Premade yeast drop out supplements (Clontech) were utilized in this and other examples for media preparation, amino acids and other standard chemicals were purchased from Sigma-Aldrich (USA). The naturally occurring (+)-ABA isomer was used in all experiments and purchased from Biosynth Ag (Switzerland).

Mutations in PYR1 that disrupt ABA-induced binding to PYR1 to HAB1	Molecule
x	G86A: PYR1 mutant (protein, UniProt O49686 1-191, looked up, variant G86A) Abscisic acid receptor PYR1: MPSELTPEERSELKNSIAEFHTYQLDPGSCSSLHAQRIHAPPELVWSIVRRFDKPQTYKHFIKSCSVEQNFEMRVGCTRDVIVISALPANTSTERLDILDDERRVTGFSIIGGEHRLTNYKSVTTVHRFEKENRIWTVVLESYVVDMPEGNSEDDTRMFADTVVKLNLQKLATVAEAMARNSGDGSGSQVT
x	G86T: PYR1 mutant (protein, UniProt O49686 1-191, looked up, variant G86T) Abscisic acid receptor PYR1: MPSELTPEERSELKNSIAEFHTYQLDPGSCSSLHAQRIHAPPELVWSIVRRFDKPQTYKHFIKSCSVEQNFEMRVGCTRDVIVISTLPANTSTERLDILDDERRVTGFSIIGGEHRLTNYKSVTTVHRFEKENRIWTVVLESYVVDMPEGNSEDDTRMFADTVVKLNLQKLATVAEAMARNSGDGSGSQVT
x	G86W: PYR1 mutant (protein, UniProt O49686 1-191, looked up, variant G86W) Abscisic acid receptor PYR1: MPSELTPEERSELKNSIAEFHTYQLDPGSCSSLHAQRIHAPPELVWSIVRRFDKPQTYKHFIKSCSVEQNFEMRVGCTRDVIVISWLPANTSTERLDILDDERRVTGFSIIGGEHRLTNYKSVTTVHRFEKENRIWTVVLESYVVDMPEGNSEDDTRMFADTVVKLNLQKLATVAEAMARNSGDGSGSQVT
x	G86P: PYR1 mutant (protein, UniProt O49686 1-191, looked up, variant G86P) Abscisic acid receptor PYR1: MPSELTPEERSELKNSIAEFHTYQLDPGSCSSLHAQRIHAPPELVWSIVRRFDKPQTYKHFIKSCSVEQNFEMRVGCTRDVIVISPLPANTSTERLDILDDERRVTGFSIIGGEHRLTNYKSVTTVHRFEKENRIWTVVLESYVVDMPEGNSEDDTRMFADTVVKLNLQKLATVAEAMARNSGDGSGSQVT
x	G86C: PYR1 mutant (protein, UniProt O49686 1-191, looked up, variant G86C) Abscisic acid receptor PYR1: MPSELTPEERSELKNSIAEFHTYQLDPGSCSSLHAQRIHAPPELVWSIVRRFDKPQTYKHFIKSCSVEQNFEMRVGCTRDVIVISCLPANTSTERLDILDDERRVTGFSIIGGEHRLTNYKSVTTVHRFEKENRIWTVVLESYVVDMPEGNSEDDTRMFADTVVKLNLQKLATVAEAMARNSGDGSGSQVT
x	G86R: PYR1 mutant (protein, UniProt O49686 1-191, looked up, variant G86R) Abscisic acid receptor PYR1: MPSELTPEERSELKNSIAEFHTYQLDPGSCSSLHAQRIHAPPELVWSIVRRFDKPQTYKHFIKSCSVEQNFEMRVGCTRDVIVISRLPANTSTERLDILDDERRVTGFSIIGGEHRLTNYKSVTTVHRFEKENRIWTVVLESYVVDMPEGNSEDDTRMFADTVVKLNLQKLATVAEAMARNSGDGSGSQVT
x	G86Y: PYR1 mutant (protein, UniProt O49686 1-191, looked up, variant G86Y) Abscisic acid receptor PYR1: MPSELTPEERSELKNSIAEFHTYQLDPGSCSSLHAQRIHAPPELVWSIVRRFDKPQTYKHFIKSCSVEQNFEMRVGCTRDVIVISYLPANTSTERLDILDDERRVTGFSIIGGEHRLTNYKSVTTVHRFEKENRIWTVVLESYVVDMPEGNSEDDTRMFADTVVKLNLQKLATVAEAMARNSGDGSGSQVT
x	G86S: PYR1 mutant (protein, UniProt O49686 1-191, looked up, variant G86S) Abscisic acid receptor PYR1: MPSELTPEERSELKNSIAEFHTYQLDPGSCSSLHAQRIHAPPELVWSIVRRFDKPQTYKHFIKSCSVEQNFEMRVGCTRDVIVISSLPANTSTERLDILDDERRVTGFSIIGGEHRLTNYKSVTTVHRFEKENRIWTVVLESYVVDMPEGNSEDDTRMFADTVVKLNLQKLATVAEAMARNSGDGSGSQVT
x	G86N: PYR1 mutant (protein, UniProt O49686 1-191, looked up, variant G86N) Abscisic acid receptor PYR1: MPSELTPEERSELKNSIAEFHTYQLDPGSCSSLHAQRIHAPPELVWSIVRRFDKPQTYKHFIKSCSVEQNFEMRVGCTRDVIVISNLPANTSTERLDILDDERRVTGFSIIGGEHRLTNYKSVTTVHRFEKENRIWTVVLESYVVDMPEGNSEDDTRMFADTVVKLNLQKLATVAEAMARNSGDGSGSQVT
x	G86L: PYR1 mutant (protein, UniProt O49686 1-191, looked up, variant G86L) Abscisic acid receptor PYR1: MPSELTPEERSELKNSIAEFHTYQLDPGSCSSLHAQRIHAPPELVWSIVRRFDKPQTYKHFIKSCSVEQNFEMRVGCTRDVIVISLLPANTSTERLDILDDERRVTGFSIIGGEHRLTNYKSVTTVHRFEKENRIWTVVLESYVVDMPEGNSEDDTRMFADTVVKLNLQKLATVAEAMARNSGDGSGSQVT
x	G86V: PYR1 mutant (protein, UniProt O49686 1-191, looked up, variant G86V) Abscisic acid receptor PYR1: MPSELTPEERSELKNSIAEFHTYQLDPGSCSSLHAQRIHAPPELVWSIVRRFDKPQTYKHFIKSCSVEQNFEMRVGCTRDVIVISVLPANTSTERLDILDDERRVTGFSIIGGEHRLTNYKSVTTVHRFEKENRIWTVVLESYVVDMPEGNSEDDTRMFADTVVKLNLQKLATVAEAMARNSGDGSGSQVT
x	G86Q: PYR1 mutant (protein, UniProt O49686 1-191, looked up, variant G86Q) Abscisic acid receptor PYR1: MPSELTPEERSELKNSIAEFHTYQLDPGSCSSLHAQRIHAPPELVWSIVRRFDKPQTYKHFIKSCSVEQNFEMRVGCTRDVIVISQLPANTSTERLDILDDERRVTGFSIIGGEHRLTNYKSVTTVHRFEKENRIWTVVLESYVVDMPEGNSEDDTRMFADTVVKLNLQKLATVAEAMARNSGDGSGSQVT
x	G86F: PYR1 mutant (protein, UniProt O49686 1-191, looked up, variant G86F) Abscisic acid receptor PYR1: MPSELTPEERSELKNSIAEFHTYQLDPGSCSSLHAQRIHAPPELVWSIVRRFDKPQTYKHFIKSCSVEQNFEMRVGCTRDVIVISFLPANTSTERLDILDDERRVTGFSIIGGEHRLTNYKSVTTVHRFEKENRIWTVVLESYVVDMPEGNSEDDTRMFADTVVKLNLQKLATVAEAMARNSGDGSGSQVT
x	G86D: PYR1 mutant (protein, UniProt O49686 1-191, looked up, variant G86D) Abscisic acid receptor PYR1: MPSELTPEERSELKNSIAEFHTYQLDPGSCSSLHAQRIHAPPELVWSIVRRFDKPQTYKHFIKSCSVEQNFEMRVGCTRDVIVISDLPANTSTERLDILDDERRVTGFSIIGGEHRLTNYKSVTTVHRFEKENRIWTVVLESYVVDMPEGNSEDDTRMFADTVVKLNLQKLATVAEAMARNSGDGSGSQVT
x	G86M: PYR1 mutant (protein, UniProt O49686 1-191, looked up, variant G86M) Abscisic acid receptor PYR1: MPSELTPEERSELKNSIAEFHTYQLDPGSCSSLHAQRIHAPPELVWSIVRRFDKPQTYKHFIKSCSVEQNFEMRVGCTRDVIVISMLPANTSTERLDILDDERRVTGFSIIGGEHRLTNYKSVTTVHRFEKENRIWTVVLESYVVDMPEGNSEDDTRMFADTVVKLNLQKLATVAEAMARNSGDGSGSQVT
x	G86E: PYR1 mutant (protein, UniProt O49686 1-191, looked up, variant G86E) Abscisic acid receptor PYR1: MPSELTPEERSELKNSIAEFHTYQLDPGSCSSLHAQRIHAPPELVWSIVRRFDKPQTYKHFIKSCSVEQNFEMRVGCTRDVIVISELPANTSTERLDILDDERRVTGFSIIGGEHRLTNYKSVTTVHRFEKENRIWTVVLESYVVDMPEGNSEDDTRMFADTVVKLNLQKLATVAEAMARNSGDGSGSQVT
